{"source": "patent US7589207B2", "about": "“Cyclohexyl compounds as CCR5 antagonists” (SmithKline Beecham Corporation, priority 2002, dated 2009)", "target": "T1, human CCR5 chemokine receptor (Homo sapiens, UniProt P51681)", "T1 construct": "host or cells: Chinese Hamster Ovary (CHO) cells; membranes prepared from the cell pellet", "T1 sequence (P51681 whole entry)": "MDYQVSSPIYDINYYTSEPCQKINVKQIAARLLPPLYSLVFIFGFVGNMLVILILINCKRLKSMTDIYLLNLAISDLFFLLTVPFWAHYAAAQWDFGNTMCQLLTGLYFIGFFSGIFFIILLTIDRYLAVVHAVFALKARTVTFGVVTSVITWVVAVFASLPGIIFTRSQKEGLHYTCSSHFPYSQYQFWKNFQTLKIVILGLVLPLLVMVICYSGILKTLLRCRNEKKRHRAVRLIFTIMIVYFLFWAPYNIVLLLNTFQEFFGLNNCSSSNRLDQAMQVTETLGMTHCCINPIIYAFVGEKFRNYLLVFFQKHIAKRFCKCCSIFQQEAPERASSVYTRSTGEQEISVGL", "experiment": "CC-Chemokine Receptor-5 binding by Scintillation Proximity Assay (CCR5 SPA), displacement of 125I-MIP1α", "conditions": "standard compound, 14-point concentration-response curve in triplicate, starting concentration 1 μM", "procedure": "CC-Chemokine Receptor-5 Binding by Scintillation Proximity Assay (CCR5 SPA) Scintillation Proximity Assay for the Human CC-Chemokine Receptor, CCR-5\nThis protocol describes a high-throughput screen using SPA binding to identify compounds that inhibit binding of ^125I-MIP1α to the human CCR5 chemokine receptor.\nHuman CCR5 receptors were expressed in Chinese Hamster Ovary (CHO) cells, registration # 12025. Cells were grown in suspension and a 50 to 80 ml CCR5 cell pellet was prepared. […]\nThe saturation curve binding experiment is performed by adding varying amounts of [^125I]MIP1α (0-8.5 nM to membranes and beads in concentrations chosen from the optimal protein/bead ratio. The data is analyzed using a non-linear curve-fitting program. The Kd and Bmax are derived from the curve. […]"}
{"substance": "MIP1α: natural chemokine ligand of CCR5, used as the standard compound in the CCR5 SPA binding assay", "values": [{"measurement": "average historical pKi", "result": 7.6}]}
